Consider one molecule from patent US11896644B2, “Inhibition of beta-arrestin oligomerization in tauopathy” (UNIVERSITY OF SOUTH FLORIDA, priority 2020, dated 2024).

The test system of series [1] is tau aggregates. As to the kind of experiment: Filter-trap assay for tau aggregates from Hela-V5-tau cells. The conditions noted are these: vs control vector. The class given is cell-based. The source says: FIGS. 11A to 11E show β-arrestin2 oligomerization mutants reduce tau aggregates. FIG. 11A contains representative confocal images of total tau in Hela-V5-tau cells transfected with YFP, YFP-β-arrestin2 ΔIP6C, or YFP-β-arrestin2 ΔIP6N (Scale bar=10 μm). FIG. 11B contains representative confocal images of proximity ligation assay (PLA) in Hela-V5-tau cells transfected with β-arrestin2-flag and β-arrestin2-myc with YFP control, YFP-β-arrestin2 ΔIP6C, or YFP-β-arrestin2 ΔIP6N.
(§1) When DIV 18 tau P301S cortical primary neurons were transduced with either β-arrestin2 ΔIP6C or ΔIP6N lentivirus, an approximately 50% reduction in tau compared to control was evident (FIGS. 4A,4B), which represents a key finding relevant to both mechanism of action and potential therapeutic strategies. […] Also investigated was whether β-arrestin2 oligomerization is required for slowing tau turnover by disrupting oligomerization using these mutants in several models. […] To determine whether β-arrestin2 oligomerization status alters tau aggregation itself, filter-trap assays were performed from Hela-V5-tau cells transfected with β-arrestin2 variants, in which tau aggregates from detergent-soluble and-insoluble lysates were captured by cellulose acetate membranes and assessed by immunoblotting.

In series [2] the test system is tau turnover in Hela-V5-tau cells. As to the kind of experiment: Cycloheximide chase of tau turnover in Hela-V5-tau cells. In kind it is cell-based. Particulars: cycloheximide 100 μg/ml.
Text: FIGS. 4A to 4E show β-arrestin2 oligomerization is required for suppressing tau turnover. […] Data are shown as box plots or mean±SEM.
as §1

The target of series [3] is T1, β-arrestin2-flag and β-arrestin2-myc interaction (Rattus norvegicus, UniProt P29067).
T1 construct: expressed in transfected cells; host or cells: Hela V5-tau cells
T1 sequence (P29067 whole entry): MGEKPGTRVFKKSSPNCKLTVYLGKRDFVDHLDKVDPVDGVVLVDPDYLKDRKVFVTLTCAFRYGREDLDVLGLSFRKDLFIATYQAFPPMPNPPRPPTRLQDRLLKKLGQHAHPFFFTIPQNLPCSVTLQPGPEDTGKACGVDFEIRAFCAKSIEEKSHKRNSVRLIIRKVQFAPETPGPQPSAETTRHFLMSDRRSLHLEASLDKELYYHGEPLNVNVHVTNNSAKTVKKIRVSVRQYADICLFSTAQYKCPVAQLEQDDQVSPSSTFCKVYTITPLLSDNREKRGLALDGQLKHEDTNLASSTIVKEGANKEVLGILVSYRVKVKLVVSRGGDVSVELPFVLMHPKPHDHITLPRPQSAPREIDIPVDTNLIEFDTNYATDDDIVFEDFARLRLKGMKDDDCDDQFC
As to the kind of experiment: PLA of β-arrestin2-flag and β-arrestin2-myc interaction in presence of mutants. The class given is cell-based. Particulars: Hela-V5-tau cells. The procedure: The assay was performed using commercially available reagents (Duolink, Sigma-Aldrich, St Louis, MO), with transfection of Hela V5-tau cells with WT β-arrestin2-flag and β-arrestin2-myc, without and with the mutant β-arrestin2 ΔIP6C or β-arrestin2 ΔIP6N constructs. Cells were fixed with 4% paraformaldehyde for 15 min at room temperature and washed with 0.2% triton in TBS. After washing, cells were blocked with 0.2% Triton in 3% Normal goat serum for 1 hour at room temperature. After applying primary antibodies overnight at 4° C., cells were washed and incubated with the PLA probes at 37° C. (1 h), washed with buffer A, incubated with ligation solution at 37° C. (30 min), washed with washing buffer A, incubated with amplification solution at 37° C. […]
When DIV 18 tau P301S cortical primary neurons were transduced with either β-arrestin2 ΔIP6C or ΔIP6N lentivirus, an approximately 50% reduction in tau compared to control was evident (FIGS. 4A,4B), which represents a key finding relevant to both mechanism of action and potential therapeutic strategies. […] To determine whether β-arrestin2 oligomerization status alters tau aggregation itself, filter-trap assays were performed from Hela-V5-tau cells transfected with β-arrestin2 variants, in which tau aggregates from detergent-soluble and-insoluble lysates were captured by cellulose acetate membranes and assessed by immunoblotting.

Series [4] deals with T2, βarrestin1/βarrestin2 hetero-oligomers (UniProt P29067+P49407).
T2 construct: expressed in transfected cells; host or cells: HeLa-V5-tau cells
T2 sequence (P49407 whole entry): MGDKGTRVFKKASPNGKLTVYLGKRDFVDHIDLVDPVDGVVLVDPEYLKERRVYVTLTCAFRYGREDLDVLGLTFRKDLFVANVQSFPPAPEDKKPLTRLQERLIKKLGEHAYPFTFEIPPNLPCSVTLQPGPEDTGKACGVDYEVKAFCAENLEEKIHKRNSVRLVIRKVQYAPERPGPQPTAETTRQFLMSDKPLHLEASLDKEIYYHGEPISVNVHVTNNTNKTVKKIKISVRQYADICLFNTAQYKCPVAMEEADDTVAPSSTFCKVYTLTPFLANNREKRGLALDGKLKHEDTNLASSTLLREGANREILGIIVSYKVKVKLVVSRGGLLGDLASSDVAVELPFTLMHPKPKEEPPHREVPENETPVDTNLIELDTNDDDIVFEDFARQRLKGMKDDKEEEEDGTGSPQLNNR
T2 sequence (P29067 whole entry): as the sequence (P29067 whole entry) above
Kind of series: PLA for βarrestin1/βarrestin2 hetero-oligomers in HeLa-V5-tau cells. The class given is cell-based. The source says:
(§2) FIGS. 24A to 24D show β-arrestin2 oligomerization mutants impair β-arrestin1 homo-oligomers and β-arrestin1/β-arrestin2 hetero-oligomers. HeLa-V5-tau cells were co-transfected with vector control or β-arrestin2 oligomerization mutants (ΔIP6C or ΔIP6N) together with βarrestin1-GFP+βarrestin1-myc or βarrestin2-myc. Cells were then subjected to proximity ligation assay (PLA) using antibodies against GFP and mycto detect βarrestin1 homo-oligomers (FIGS. 24A,24B) and βarrestin1/βarrestin2 hetero-oligomers and DAPI staining (FIGS. 24C,24D) (puncta).

In series [5] the test system is GFP-p62 puncta. As to the kind of experiment: GFP-p62 puncta in Hela-V5-tau cells with/without bafilomycin A. The conditions noted are these: steady-state. The class given is cell-based. On the procedure: Data are shown as box plots or mean±SEM.
Given the effects on p62 autophagy flux, whether β-arrestin2 physically interacts with p62 was tested. […] Given that β-arrestin2 oligomeric mutants, ΔIP6C and ΔIP6N, reduced tau aggregates by slowing tau turnover, next tested was whether β-arrestin2 ΔIP6C and ΔIP6N mutants affect p62 self-association by a proximity ligation assays (PLA) as well as co-IP. […] Recent studies have shown that purified recombinant p62 spontaneously forms globular oligomers (Zaffagnini G, et al. (2018) EMBO J 37(5)). To test whether β-arrestin2 can directly affect p62 oligomerization in vitro, purified recombinant p62, β-arrestin2, and p62 mixed with β-arrestin2 with atomic force microscopy were visualized. Recombinant p62 spontaneously formed visible globular particles between 5-100 nm in diameter (FIG. 5K), whereas only very few small β-arrestin2 particles were visible under identical conditions (FIG. 5K). […] Next tested was whether β-arrestin2 oligomerization is required for bafilomycin A-induced p62 puncta formation. As expected, GFP-p62 puncta were increased upon bafilomycin A treatment in control vector transfected cells (FIGS. 5M,5N).

Series [6] addresses β-arrestin2 oligomers (Rattus norvegicus, UniProt P29067). Particulars: BRET and co-immunoprecipitation; cited from earlier work.
The target of series [7] is T3, βarrestin1 homo-oligomers (Homo sapiens, UniProt P49407).
T3 construct: expressed in transfected cells; host or cells: HeLa-V5-tau cells
T3 sequence (P49407 whole entry): as the sequence (P49407 whole entry) above
T3 sequence (P49407 whole entry): as above
As to the kind of experiment: PLA for βarrestin1 homo-oligomers in HeLa-V5-tau cells. In kind it is cell-based.
Text: as §2

β-arrestin2 oligomers, sequence (P29067 whole entry): as the sequence (P29067 whole entry) above

B1: β-arrestin2 ΔIP6N: β-arrestin2 N-terminal domain mutant (K158A, K161A, and R162A), incapable of forming oligomers; dominant negative (protein, UniProt P32121 1-409, looked up, variant K158A K161A R162A)
Beta-arrestin-2: MGEKPGTRVFKKSSPNCKLTVYLGKRDFVDHLDKVDPVDGVVLVDPDYLKDRKVFVTLTCAFRYGREDLDVLGLSFRKDLFIATYQAFPPVPNPPRPPTRLQDRLLRKLGQHAHPFFFTIPQNLPCSVTLQPGPEDTGKACGVDFEIRAFCAKSLEEASHAANSVRLVIRKVQFAPEKPGPQPSAETTRHFLMSDRSLHLEASLDKELYYHGEPLNVNVHVTNNSTKTVKKIKVSVRQYADICLFSTAQYKCPVAQLEQDDQVSPSSTFCKVYTITPLLSDNREKRGLALDGKLKHEDTNLASSTIVKEGANKEVLGILVSYRVKVKLVVSRGGDVSVELPFVLMHPKPHDHIPLPRPQSAAPETDVPVDTNLIEFDTNYATDDDIVFEDFARLRLKGMKDDDYDDQLC
modifications: GFP or YFP tag
notes: dominant negative
For B1, in series [1], the “tau aggregates in detergent-insoluble lysates (filter-trap)” value is reported as “significantly reduced tau aggregates”. Moreover, the “tau turnover in cycloheximide chase” value in series [2] is recorded as “enhancement of tau turnover”. In addition, the “β-arrestin2-flag and β-arrestin2-myc interaction (PLA)” value in series [3] is listed as “significantly reduced”. For the same molecule, the “βarrestin1/βarrestin2 hetero-oligomers (PLA puncta)” value in series [4] is “significantly reduce”. Moreover, the GFP-p62 puncta result in series [5] is “increased GFP-p62 puncta at steady-state”. Moreover, in series [6], the oligomer formation result was “incapable of forming oligomers”. Also, the “βarrestin1 homo-oligomers (PLA puncta)” value in series [7] was “significantly reduce”.
